In assay [1] the target is MUC5ac mucin (PAM4 antigen) from CaPan1 human pancreatic carcinoma (human) (UniProt P98088). Description: sandwich EIA, hPAM4 capture of antigen from CPM1, MAb probe at 10 µg/mL (FIG. 26).
The target is the same in assay [2]. Kind of assay: inhibition EIA on CPM1-coated plates; competitor hPAM4 at […].
Assay [3] shares this target. Description: ELISA on target mucin antigen (FIG. 9). On the technique in general: An ELISA detects its analyte on a solid surface through an enzyme-linked reagent.
Assay [4] has the same target. Kind of assay: size exclusion chromatography of TF10/111In-IMP-288 with excess mucin. For orientation: In gel filtration, larger molecules generally elute earlier.
Assay [5] shares this target. Description: radiolabeled TF10 with MUC5ac, size exclusion chromatography (not shown).
Assay [6] concerns the target IMP-288 DOTA-di-HSG hapten-peptide. Description: 111In-IMP-288 with TF10, size exclusion chromatography (not shown).

With 45M1 anti-MUC5ac MAb (antibody), the Kd (in general, the concentration at which binding is half-saturated) in assay [1] stood at 14.3 µg/mL. This substance yielded an ICmax (maximal % inhibition) in assay [2] of 25.5%.

For the substance “TF10 bispecific ([hPAM4]2 x h679) DNL construct (bispecific antibody)”, the 50% effective concentration (EC50) (usually the concentration needed to bring the measured effect to its halfway point) in assay [3] came out at 1.42 nM. Also, the percent of TF10-bound 111In-IMP-288 shifted by mucin in assay [4] amounted to 92%. In addition, the immunoreactive fraction bound in assay [5] worked out at 87%. The same substance had a percent of peptide bound in assay [6] of 90%.

Source of the values: patent US20140227179A1.
